The experiment addresses T1, HA-tPPARγΔ64D (THP-1) (human, UniProt P37231-2 65-477).
T1 construct: also called truncated PPARγ; source: THP-1, transfected, in cell extract; not shown: HA, C-terminal, kept
T1 sequence (looked up): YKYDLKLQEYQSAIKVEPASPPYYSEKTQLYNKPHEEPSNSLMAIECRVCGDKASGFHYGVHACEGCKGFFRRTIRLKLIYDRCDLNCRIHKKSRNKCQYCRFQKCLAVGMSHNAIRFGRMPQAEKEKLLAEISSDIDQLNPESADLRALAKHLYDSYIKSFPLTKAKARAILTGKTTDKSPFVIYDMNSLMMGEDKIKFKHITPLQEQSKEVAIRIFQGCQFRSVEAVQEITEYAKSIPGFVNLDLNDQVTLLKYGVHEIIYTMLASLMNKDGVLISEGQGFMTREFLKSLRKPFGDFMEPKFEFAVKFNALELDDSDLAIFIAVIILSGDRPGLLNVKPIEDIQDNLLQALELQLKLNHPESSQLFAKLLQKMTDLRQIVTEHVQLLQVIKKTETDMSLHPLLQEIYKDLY
Kind of experiment: co-IP; THP-1 cells transfected with HA-PPARγ or HA-tPPARγΔ64D; extracts precipitated with anti-HA and blotted with anti-MCAD, or precipitated with anti-MCAD and blotted with anti-HA; blots scanned. The note with it: partners not purified.

B1: medium-chain acyl-CoA dehydrogenase (MCAD), endogenous in THP-1 (enzyme, human (endogenous in THP-1), UniProt P11310 26-421, looked up)
chain: KANRQREPGLGFSFEFTEQQKEFQATARKFAREEIIPVAAEYDKTGEYPVPLIRRAWELGLMNTHIPENCGGLGLGTFDACLISEELAYGCTGVQTAIEGNSLGQMPIIIAGNDQQKKKYLGRMTEEPLMCAYCVTEPGAGSDVAGIKTKAEKKGDEYIINGQKMWITNGGKANWYFLLARSDPDPKAPANKAFTGFIVEADTPGIQIGRKELNMGQRCSDTRGIVFEDVKVPKENVLIGDGAGFKVAMGAFDKTRPVVAAGAVGLAQRALDEATKYALERKTFGKLLVEHQAISFMLAEMAMKVELARMSYQRAAWEVDSGRRNTYYASIAKAFAGDIANQLATDAVQILGGNGFNTEYPVEKLMRDAKIYQIYEGTSQIQRLIVAREHIDKYKN
notes: medium-chain acyl-CoA dehydrogenase (MCAD), mitochondrial; detected and precipitated with an anti-MCAD antibody; source: endogenous, THP-1 cell extract
As for B1, the “fold MCAD bound against full-length PPARγ” value is 8 fold.

Values taken from paper PMC5626701, “Caspase-1 cleaves PPARγ for potentiating the pro-tumor action of TAMs” (Nature Communications, 2017).
